# Tests used:
# [1] = test system: synthetic peptide HK2p01 (SRFKVWWAAG)
# [2] = test system: synthetic peptide HK2p02 (AARRPFPAPS)
# [3] = test system: synthetic peptide HK2p03 (PARRPFPVTA)
# [4] = test system: synthetic peptide HK2p04 (CFRQGCWVIT)
# [5] = test system: synthetic peptide HK2p06 (CYRMPTCMQRD)
# plasma kallikrein, sequence (chain, as listed by the source): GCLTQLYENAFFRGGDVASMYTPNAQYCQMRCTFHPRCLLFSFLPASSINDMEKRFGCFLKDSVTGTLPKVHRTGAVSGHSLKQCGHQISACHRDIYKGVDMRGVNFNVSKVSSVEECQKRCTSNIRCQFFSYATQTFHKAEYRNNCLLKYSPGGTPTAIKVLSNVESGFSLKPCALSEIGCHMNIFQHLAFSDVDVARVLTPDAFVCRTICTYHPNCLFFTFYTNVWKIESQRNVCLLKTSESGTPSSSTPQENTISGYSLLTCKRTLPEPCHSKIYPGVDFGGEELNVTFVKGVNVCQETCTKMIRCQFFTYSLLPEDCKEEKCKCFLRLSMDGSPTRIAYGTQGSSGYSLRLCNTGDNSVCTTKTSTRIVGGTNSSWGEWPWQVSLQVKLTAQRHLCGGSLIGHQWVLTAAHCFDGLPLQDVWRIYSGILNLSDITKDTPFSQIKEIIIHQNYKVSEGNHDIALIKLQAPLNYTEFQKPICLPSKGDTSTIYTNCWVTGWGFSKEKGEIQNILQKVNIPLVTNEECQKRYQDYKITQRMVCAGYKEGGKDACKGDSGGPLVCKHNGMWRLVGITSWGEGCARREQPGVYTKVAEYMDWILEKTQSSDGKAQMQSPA
Substance,enzyme activity (chromogenic substrate) [1],enzyme activity (chromogenic substrate) [2],enzyme activity (chromogenic substrate) [3],enzyme activity of hK2 (chromogenic substrate S-2302) [1],enzyme activity of hK2 (chromogenic substrate S-2302) [2],enzyme activity of hK2 (chromogenic substrate S-2302) [3],enzyme activity of hK2 (chromogenic substrate S-2302) [4],enzyme activity of hK2 (chromogenic substrate S-2302) [5]
plasma kallikrein,showed no inhibition,showed no inhibition,showed no inhibition,,,,,
prostate specific antigen,showed no inhibition,showed no inhibition,showed no inhibition,,,,,
recombinant wild-type (wt) human kallikrein 2,,,,caused a significant reduction of the enzyme activity,caused a significant reduction of the enzyme activity,caused a significant reduction of the enzyme activity,did not show any effect on the enzyme activity of hK2,did not show any effect on the enzyme activity of hK2
thrombin,showed no inhibition,showed no inhibition,showed no inhibition,,,,,
urokinase,showed no inhibition,showed no inhibition,showed no inhibition,,,,,
α-chymotrypsin,showed no inhibition,showed no inhibition,showed no inhibition,,,,,

# Source: patent US20090214427
